Results as given in the supplement of paper PMC12042874.
± gives the uncertainty stated by the source.

Assay: amyloid nucleation score (Sup35N fusion, yeast selection) (log enrichment); library NNK3; higher = more nucleation; inactive = no reads after selection
How it was run: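 For the nucleation score, DiMSum gave the log enrichment of output over input reads, centred on the mode score of non-aggregating sequences. Psi-negative yeast expressing Sup35N fused to peptides of 20 random codons were induced with 100 μM copper sulfate for 24 hours and grown 7 days at 30°C on medium lacking adenine and uracil. Input and output plasmid inserts were Illumina-sequenced, and sequences with under 100 input reads were excluded.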

Substance: GERVSSESGRMPLPLCCYLV
- amyloid nucleation score: inactive

Substance: GESLQLECLYFTFIKMYVSL
- amyloid nucleation score: inactive

Substance: GEWSNLSNCTVNNVSRSGCS
- amyloid nucleation score: inactive

Substance: GEYFCRNLNHID
- amyloid nucleation score: inactive

Substance: GFFCIYWGHWGFSES
- amyloid nucleation score: inactive

Substance: GFFSLYVVE
- amyloid nucleation score: inactive

Substance: GFIEW
- amyloid nucleation score: inactive

Substance: GFIQRKNQRGVKKCRESYYY
- amyloid nucleation score: inactive

Substance: GFLGCRSETFWRVVVTKRKV
- amyloid nucleation score: inactive

Substance: GFLKCVGVRLDDSRGVVCAT
- amyloid nucleation score: inactive

Substance: GFMGFVTSHVKMTGNMCNEI
- amyloid nucleation score: inactive

Substance: GFPPCSTRTIQLTWHSSNV
- amyloid nucleation score: 0.37 ± 0.17

Substance: GFSYM
- amyloid nucleation score: inactive

Substance: GFTAGRFPCGSFWLGSCCWY
- amyloid nucleation score: 0.231 ± 0.36

Substance: GFTFNGF
- amyloid nucleation score: inactive

Substance: GFTLHHLTACVIGTCVFFSP
- amyloid nucleation score: 1.93 ± 0.1

Substance: GFVIYLNVALLVRSNINRVC
- amyloid nucleation score: inactive

Substance: GGDTPDDRVSNHCLYRHHHV
- amyloid nucleation score: inactive

Substance: GGEGLVRQA
- amyloid nucleation score: inactive

Substance: GGHENKKRYSSRTIGMCVHE
- amyloid nucleation score: inactive

Substance: GGKQCTPNDTM
- amyloid nucleation score: -0.186 ± 0.55

Substance: GGLRNNPKRVIRDEDVQVHM
- amyloid nucleation score: inactive

Substance: GGSARCNRLCWYAVLDVLLL
- amyloid nucleation score: inactive

Substance: GGSFKVDNPKVTRAWISFFS
- amyloid nucleation score: 0.802 ± 0.13

Substance: GGSFREVVNRRTRVGEDP
- amyloid nucleation score: inactive

Substance: GHQNRTP
- amyloid nucleation score: inactive

Substance: GICWY
- amyloid nucleation score: inactive

Substance: GIDDDCARHIYWGRFLIGSC
- amyloid nucleation score: -0.241 ± 1.1

Substance: GIFCYQWWRTNPNESLAR
- amyloid nucleation score: inactive

Substance: GIGNCYLMLQTKIFEWFFSE
- amyloid nucleation score: inactive

Substance: GIKNMRSISKFGWVFLIYTV
- amyloid nucleation score: inactive

Substance: GISMRRNFSLNKCCSAQSLF
- amyloid nucleation score: inactive

Substance: GISSKRMFLSLSAFERSVYI
- amyloid nucleation score: inactive

Substance: GISWILSVGGCTSRAWLWSW
- amyloid nucleation score: inactive

Substance: GITIWLYNPYFL
- amyloid nucleation score: inactive

Substance: GIVILLNYHPIRLF
- amyloid nucleation score: 2.2 ± 0.068

Substance: GIVYKRVYRMWVHVAEAESR
- amyloid nucleation score: inactive

Substance: GIYCMSVSWFNVDLDTTGNT
- amyloid nucleation score: inactive

Substance: GIYRLGVNHGMFSCLM
- amyloid nucleation score: inactive

Substance: GKARQSLHIGSSLLTFMA
- amyloid nucleation score: inactive

Substance: GKKDRVRQTYFYMNSYIHW
- amyloid nucleation score: 1.65 ± 0.085

Substance: GKLCYYSVYWESALNQPRSS
- amyloid nucleation score: inactive

Substance: GKLFWFCFRWRYLLTKMVQN
- amyloid nucleation score: -0.702 ± 1.3

Substance: GKNSCCKLIVWDEVFGLKLC
- amyloid nucleation score: inactive

Substance: GKPWGTGSLVLWYLYDEDCA
- amyloid nucleation score: inactive

Substance: GKSIKGYGHSVFTVVLTVGY
- amyloid nucleation score: inactive

Substance: GKYSYLDIPTTIVYMFIH
- amyloid nucleation score: 1.44 ± 0.14

Substance: GLALGWHFTC
- amyloid nucleation score: inactive

Substance: GLCHMFGYDFTSMNCSSPGA
- amyloid nucleation score: inactive

Substance: GLDLSSYPEL
- amyloid nucleation score: inactive

Substance: GLFCLKFKPTQGVPRQKLL
- amyloid nucleation score: inactive

Substance: GLGWNWDWR
- amyloid nucleation score: inactive

Substance: GLNLR
- amyloid nucleation score: inactive

Substance: GLPLEWDDSWNVKIVLLCWS
- amyloid nucleation score: inactive

Substance: GLRVTH
- amyloid nucleation score: inactive

Substance: GLSISFTTDFFLKVLSESAR
- amyloid nucleation score: inactive

Substance: GLSLNYCVLGYGLLTM
- amyloid nucleation score: inactive

Substance: GLTFCATRCRDWLEGWQY
- amyloid nucleation score: inactive

Substance: GLVCFYTGLDVMLDTREFYR
- amyloid nucleation score: inactive

Substance: GLYMKVKFGYTEWQDFGQSS
- amyloid nucleation score: -0.237 ± 0.69

Substance: GLYSDNSVYTLQMFIEGAHH
- amyloid nucleation score: 0.4 ± 0.3

Substance: GMAWLVGWLGLRLLTYFGYR
- amyloid nucleation score: inactive

Substance: GMDKRNNYMSIIDWRVPHSI
- amyloid nucleation score: inactive

Substance: GMFPVVRNGRWELRCPAVKW
- amyloid nucleation score: inactive

Substance: GMYGMSGMV
- amyloid nucleation score: inactive

Substance: GNALSIEVDGSIK
- amyloid nucleation score: inactive

Substance: GNFAM
- amyloid nucleation score: inactive

Substance: GNFKCELVSALSDNIICPYM
- amyloid nucleation score: inactive

Substance: GNIAYSVLMWSDCKTCQCDV
- amyloid nucleation score: 1.82 ± 0.058

Substance: GNKQVVNWDGYF
- amyloid nucleation score: -0.431 ± 0.96

Substance: GNLSFTPGITRKKSVLEYRH
- amyloid nucleation score: inactive

Substance: GNMLSPI
- amyloid nucleation score: inactive

Substance: GNSHLSCERSCNIKMCMSGG
- amyloid nucleation score: inactive

Substance: GNSIALSE
- amyloid nucleation score: inactive

Substance: GNSSII
- amyloid nucleation score: inactive

Substance: GNWTQ
- amyloid nucleation score: inactive

Substance: GNYRLSLHVVL
- amyloid nucleation score: 1.21 ± 0.18

Substance: GNYVRIETS
- amyloid nucleation score: inactive

Substance: GPIEPFSMLSM
- amyloid nucleation score: -0.291 ± 0.7

Substance: GPPAEASHKLWPASPRDRCP
- amyloid nucleation score: inactive

Substance: GPPLNYEVT
- amyloid nucleation score: inactive

Substance: GQFML
- amyloid nucleation score: inactive

Substance: GQWLYGWTRYVGPTI
- amyloid nucleation score: inactive

Substance: GRANGFQQIDLCEYHREYLN
- amyloid nucleation score: inactive

Substance: GRCNLGSMNNWFKLPLKSVR
- amyloid nucleation score: inactive

Substance: GRCVEVCLIWLTKGDQQCSY
- amyloid nucleation score: inactive

Substance: GREAGVIIWVRCLYFYVFER
- amyloid nucleation score: inactive

Substance: GRFASYMYCILQQHSLFYWV
- amyloid nucleation score: inactive

Substance: GRFRLMNLFQTDSRINLWVR
- amyloid nucleation score: inactive

Substance: GRLSVFLGYIHGRCYGALGR
- amyloid nucleation score: -0.635 ± 1.9

Substance: GRVESSVIYRPLNLGGGQES
- amyloid nucleation score: inactive

Substance: GSASHDPTACCFYGFV
- amyloid nucleation score: inactive

Substance: GSATVMIWQR
- amyloid nucleation score: inactive

Substance: GSDSVAGHYFSFVYKVIAEF
- amyloid nucleation score: 0.292 ± 0.3

Substance: GSFSMKDTVEVYLTPVWFSR
- amyloid nucleation score: inactive

Substance: GSGIINDMGFRWIFFMWVMA
- amyloid nucleation score: inactive

Substance: GSICYHGWTFKGKVKILNGI
- amyloid nucleation score: inactive

Substance: GSKESPKRYSSSALASVGVI
- amyloid nucleation score: inactive

Substance: GSLKPMFDRSCFFNIKAIML
- amyloid nucleation score: inactive

Substance: GSLPFLSYLGRVKCGERRSS
- amyloid nucleation score: inactive

Substance: GSNFICTFRVGKGYRPVCLE
- amyloid nucleation score: inactive

Substance: GSNRQTVRFNWS
- amyloid nucleation score: inactive

Substance: GSRLSIQTFMTS
- amyloid nucleation score: inactive

Substance: GSSKCRRLCGRVRQYSYWNR
- amyloid nucleation score: inactive

Substance: GSSSCY
- amyloid nucleation score: inactive

Substance: GSVFGKVGTVKSEMPRGSSN
- amyloid nucleation score: inactive

Substance: GSVGSRADVFLGCGDEWRQA
- amyloid nucleation score: inactive

Substance: GSWSVRLPLIWTKY
- amyloid nucleation score: inactive

Substance: GTAIIEGTM
- amyloid nucleation score: inactive

Substance: GTGMCCLIVSLVFLPLCDIA
- amyloid nucleation score: inactive

Substance: GTIHFHGGNHCSLGLL
- amyloid nucleation score: inactive

Substance: GTLDNDRVIVWSDLDFSCFR
- amyloid nucleation score: inactive

Substance: GTSIYSYRYLRYFSMFNM
- amyloid nucleation score: inactive

Substance: GTWNVKAGGPYFKVVT
- amyloid nucleation score: inactive

Substance: GVADGGMPRNSSWRLSGVVR
- amyloid nucleation score: inactive

Substance: GVCKWFCESIDMTLRAVWAN
- amyloid nucleation score: inactive

Substance: GVCSLCKTLR
- amyloid nucleation score: inactive

Substance: GVFAIGANLQANVGNDRAYT
- amyloid nucleation score: inactive

Substance: GVGGPDGCTGNDTFMRQYTN
- amyloid nucleation score: inactive

Substance: GVGVMLSYKGIFMHLSFVGE
- amyloid nucleation score: inactive

Substance: GVHWETDEGNVVRL
- amyloid nucleation score: inactive

Substance: GVIFEISVSCVQTFCPFHYL
- amyloid nucleation score: 1.21 ± 0.093

Substance: GVIILSLTAKCQAMDSVRTL
- amyloid nucleation score: 0.841 ± 0.14

Substance: GVLCMFGSTWRMFMEVGLHV
- amyloid nucleation score: inactive

Substance: GVLMNHIELL
- amyloid nucleation score: inactive

Substance: GVLSYNMIHT
- amyloid nucleation score: inactive

Substance: GVLYDGVGDNHCCGSRKLVL
- amyloid nucleation score: inactive

Substance: GVRHRLAVFQYMFTHVLWTM
- amyloid nucleation score: inactive

Substance: GVRLAWVTSCCRV
- amyloid nucleation score: inactive

Substance: GVTLTTLDSLSDFGWLIE
- amyloid nucleation score: inactive

Substance: GVVVWYSGDWTECMVVNRCD
- amyloid nucleation score: 0.78 ± 0.12

Substance: GWFMCVSTAWGVYNAYIPMQ
- amyloid nucleation score: inactive

Substance: GWFRSQSMPIALEYLTGPGS
- amyloid nucleation score: inactive

Substance: GWGPRPSKNVCHIRCDMFFM
- amyloid nucleation score: 1.59 ± 0.13

Substance: GWGVHWFYIMVINHLF
- amyloid nucleation score: inactive

Substance: GWNLGMAHSRRYGPVNISAW
- amyloid nucleation score: inactive

Substance: GWNLTHRMSTGSKLLCPLRI
- amyloid nucleation score: inactive

Substance: GWRRPNSYDLEAEFMRKSGG
- amyloid nucleation score: inactive

Substance: GWSDRFSMLYSFLLLLWKSP
- amyloid nucleation score: inactive

Substance: GWSLGARSNYGLSTGQRGCA
- amyloid nucleation score: inactive

Substance: GWWVRHSWGDGSVASVCIKM
- amyloid nucleation score: inactive

Substance: GYCNESTVWYDS
- amyloid nucleation score: inactive

Substance: GYDVRL
- amyloid nucleation score: inactive

Substance: GYERSDKKLDKKVL
- amyloid nucleation score: inactive

Substance: GYFTRFSVFNNMEPLSCCMC
- amyloid nucleation score: 1.38 ± 0.13

Substance: GYGHVIYLYYCQRHDNPQVQ
- amyloid nucleation score: inactive

Substance: GYIRPALMARGYIVVNSANI
- amyloid nucleation score: inactive

Substance: GYLLRFMCCNCIPSTEIMIE
- amyloid nucleation score: 2.73 ± 0.056

Substance: GYPFSRLSSVV
- amyloid nucleation score: inactive

Substance: GYRLRYNFVVFLM
- amyloid nucleation score: 1.02 ± 0.21

Substance: GYSVYYANVSVRGLKSRDHC
- amyloid nucleation score: inactive

Substance: GYTRVRVGCYVTVRKFWSMT
- amyloid nucleation score: -0.14 ± 1

Substance: GYVTCDLL
- amyloid nucleation score: 1.1 ± 0.11

Substance: GYYNSYQAELMTTACSDYVD
- amyloid nucleation score: inactive

Substance: HALFGYISRVDNLYSSMVSH
- amyloid nucleation score: inactive

Substance: HAVPVYD
- amyloid nucleation score: -0.394 ± 1.9

Substance: HCDLGESFTALYSFHAVLML
- amyloid nucleation score: inactive

Substance: HCFTVWWEWP
- amyloid nucleation score: inactive

Substance: HCGYGLFNCK
- amyloid nucleation score: inactive
